Earlier results as cited in US12377133B2 (Ascendis Pharma Growth Disorders A/S, priority 2019, dated 2025).
Bridges are numbered along the chain shown (N, C = ends). Where no end group is shown, it is not given here.

Settings: Lorget et al. 2012

## BMN111: recombinant CNP-39: 37 C-terminal amino acids of human CNP-53 plus glycine and proline added at the N-terminus (PGQEHPNARKYKGANKKGLSKGCFGLKLDRIGSMSGLGC; disulfide 23-39; chains of the INN, looked up)
  half-life: 20 min
